Data taken from publication PMC4293902, “Biochemical and structural characterization of the apicoplast dihydrolipoamide dehydrogenase of Plasmodium falciparum” (Bioscience Reports, 2015).

B1: PfaE3 (P. falciparum apicoplast E3, dihydrolipoamide dehydrogenase) (Plasmodium falciparum 3D7) (protein)
chain: LKGSTQNIMNINEKEYDLAIIGCGVGGHAAAINAMERNLKVIIFAGDENCIGGTCVNVGCIPSKALLYATNKYRELKNLDKLYYYGIHSNIFQNNKNTEIENNQLVSNSFQINITKLKEYTQSVIDKLRNGISHGFKTLKFNKNSEHVQVIYEHGQLLDKNTIKSKKSGNTYKVKNIIIATGSVPNIPNNVEIDDKSVFTSDMAVKLVGLKNYMSIIGMGIIGLEFADIYTALGSEITFLEYSSELLPIIDNDVAKYFERVFLKNKPVNYHLNTEVKYIKASKNNNPVIIGYSHRTGNDDNEKKNMTDVKELYVDSCLVATGRNPNTQNLGLEKLKIQMNRGYVSVNDNLQVKMENNEIYDNIFCIGDANGKQMLAHTASYQALKVIDFIEKKEKKNVNINVENNLSKPILYKNIPSVCYTNPELAFIGLTEKEAKVLYPDNVGVEISYYKSNSKILCENNISLNNNKKNNSYNKGQYNINDNTNGMVKIIYKEDTKEILGMFIVGNYASVLIHEAVLAINLKLSAFDLAYMVHSHPTVSEVLDTAFKSISKIRTH
notes: mature-length, apicoplast-targeting peptide removed; given as 110-667 in Results but 118-667 in Methods (forward primer at nt 331, i.e. codon 111); N-terminal 6-His tag kept (pQE30), expressed in E. coli NovaBlue (DE3); about 64 kDa, homodimer 128 kDa; 566 residues with tag; some C-terminally truncated form present

Tests used:
[1] = target: Plasmodium falciparum apicoplast dihydrolipoamide dehydrogenase (PfaE3), recombinant mature-length, N-terminal His-tag (Plasmodium falciparum 3D7); assay: AUC; sedimentation equilibrium, 17000 rpm, 4°C, 4.7 to 22.7 μM PfaE3; 50 mM potassium phosphate, 250 mM NaCl, 2 mM EDTA, pH 7.4; interference optics, single species model in SEDPHAT
[2] = target: Plasmodium falciparum apicoplast dihydrolipoamide dehydrogenase (PfaE3), recombinant mature-length, N-terminal His-tag (Plasmodium falciparum 3D7); assay: SEC; HiLoad 16/60 Superdex 200, calibrated; 50 mM potassium phosphate, 150 mM NaCl, 2 mM EDTA, pH 7.4; Ni-NTA eluate applied
[3] = target: Plasmodium falciparum apicoplast dihydrolipoamide dehydrogenase (PfaE3), recombinant mature-length, N-terminal His-tag (Plasmodium falciparum 3D7); assay: SAXS; EMBL beamline X33, DESY; 10°C; PfaE3 at 9, 8, 6, 5 and 4 μM; Guinier, p(r) and ab initio DAM with P2 symmetry
[4] = substrate: NC(=O)C1=CN([C@@H]2O[C@H](COP(=O)(O)OP(=O)(O)OC[C@H]3O[C@@H](n4cnc5c(N)ncnc54)[C@H](O)[C@@H]3O)[C@@H](O)[C@H]2O)C=CC1; assay: purified protein; assay type: biochemical, Plasmodium falciparum; conditions: reverse reaction, 2 mM lipoamide, 50 mM potassium phosphate, 1 mM EDTA, pH 7, 25°C
[5] = substrate: NC(=O)CCCC[C@@H](S)CCS; assay: purified protein; assay type: biochemical, Plasmodium falciparum; conditions: forward reaction, 2 mM NAD+, 50 mM potassium phosphate, 1 mM EDTA, pH 8, 25°C
[6] = substrate: NC(=O)c1ccc[n+]([C@@H]2O[C@H](COP(=O)(O)OP(=O)(O)OC[C@H]3O[C@@H](n4cnc5c(N)ncnc54)[C@H](O)[C@@H]3O)[C@@H](O)[C@H]2O)c1; assay: purified protein; assay type: biochemical, Plasmodium falciparum; conditions: forward reaction, 2 mM DHLA, 50 mM potassium phosphate, 1 mM EDTA, pH 8, 25°C
[7] = substrate: NC(=O)CCCC[C@@H]1CCSS1; assay: purified protein; assay type: biochemical, Plasmodium falciparum; conditions: reverse reaction, 200 μM NADH, 50 mM potassium phosphate, 1 mM EDTA, pH 7, 25°C

Molecule	stoichiometry N [1]	stoichiometry N [2]	stoichiometry N [3]	Km [4]	kcat [4]	Km [5]	kcat [5]	Km [6]	kcat [6]	Km [7]	kcat [7]
Plasmodium falciparum apicoplast dihydrolipoamide dehydrogenase (PfaE3), recombinant mature-length, N-terminal His-tag (enzyme)	2	2	2								
B1				15 ± 2 µM	77.8 s⁻¹	1160 ± 105 µM	110 s⁻¹	96 ± 12 µM	110 s⁻¹	841 ± 97 µM	97 s⁻¹
